# Test results as given in the Human Domainome abundance scans (Beltran et al. 2025).
# ± gives the uncertainty stated by the source.
# B1: RNA-binding E3 ubiquitin-protein ligase MEX3C, residues 325 to 391; numbered along this chain, Q5U5Q3 (parent)
# chain: GQTTVQVRVPYRVVGLVVGPKGATIKRIQQQTHTYIVTPSRDKEPVFEVTGMPENVDRAREEIEMHI
# Variants of: B1
# Test: abundance fitness (aPCA) (normalised: wild type 0, dead -1); higher = more abundant; growth selection in yeast, the domain comes from the species named
# Conditions: Homo sapiens
row,Variant,abundance fitness
1,GQTTVQVRVPYRVVGLVVGPKGATIKRIQQQTHTYNVTPSRDKEPVFEVTGMPENVDRAREEIEMHI,-0.21 ± 0.25
2,GQTTVQVRVPYRVVGLVVGPKGATIKRIQQQTHTYPVTPSRDKEPVFEVTGMPENVDRAREEIEMHI,-0.736 ± 0.14
3,GQTTVQVRVPYRVVGLVVGPKGATIKRIQQQTHTYQVTPSRDKEPVFEVTGMPENVDRAREEIEMHI,-0.801 ± 0.19
4,GQTTVQVRVPYRVVGLVVGPKGATIKRIQQQTHTYRVTPSRDKEPVFEVTGMPENVDRAREEIEMHI,-0.715 ± 0.079
5,GQTTVQVRVPYRVVGLVVGPKGATIKRIQQQTHTYSVTPSRDKEPVFEVTGMPENVDRAREEIEMHI,-0.435 ± 0.091
6,GQTTVQVRVPYRVVGLVVGPKGATIKRIQQQTHTYTVTPSRDKEPVFEVTGMPENVDRAREEIEMHI,-0.899 ± 0.21
7,GQTTVQVRVPYRVVGLVVGPKGATIKRIQQQTHTYVVTPSRDKEPVFEVTGMPENVDRAREEIEMHI,-0.471 ± 0.11
8,GQTTVQVRVPYRVVGLVVGPKGATIKRIQQQTHTYWVTPSRDKEPVFEVTGMPENVDRAREEIEMHI,-0.736 ± 0.12
9,GQTTVQVRVPYRVVGLVVGPKGATIKRIQQQTHTYIATPSRDKEPVFEVTGMPENVDRAREEIEMHI,-0.23 ± 0.059
10,GQTTVQVRVPYRVVGLVVGPKGATIKRIQQQTHTYICTPSRDKEPVFEVTGMPENVDRAREEIEMHI,-0.205 ± 0.085
11,GQTTVQVRVPYRVVGLVVGPKGATIKRIQQQTHTYIDTPSRDKEPVFEVTGMPENVDRAREEIEMHI,-0.377 ± 0.13
12,GQTTVQVRVPYRVVGLVVGPKGATIKRIQQQTHTYIETPSRDKEPVFEVTGMPENVDRAREEIEMHI,-0.422 ± 0.13
13,GQTTVQVRVPYRVVGLVVGPKGATIKRIQQQTHTYIFTPSRDKEPVFEVTGMPENVDRAREEIEMHI,-1 ± 0.22
14,GQTTVQVRVPYRVVGLVVGPKGATIKRIQQQTHTYIHTPSRDKEPVFEVTGMPENVDRAREEIEMHI,-0.582 ± 0.29
15,GQTTVQVRVPYRVVGLVVGPKGATIKRIQQQTHTYIITPSRDKEPVFEVTGMPENVDRAREEIEMHI,-0.089 ± 0.065
16,GQTTVQVRVPYRVVGLVVGPKGATIKRIQQQTHTYIKTPSRDKEPVFEVTGMPENVDRAREEIEMHI,0.216 ± 0.11
17,GQTTVQVRVPYRVVGLVVGPKGATIKRIQQQTHTYILTPSRDKEPVFEVTGMPENVDRAREEIEMHI,-0.315 ± 0.082
18,GQTTVQVRVPYRVVGLVVGPKGATIKRIQQQTHTYIMTPSRDKEPVFEVTGMPENVDRAREEIEMHI,-0.095 ± 0.092
19,GQTTVQVRVPYRVVGLVVGPKGATIKRIQQQTHTYINTPSRDKEPVFEVTGMPENVDRAREEIEMHI,-0.426 ± 0.18
20,GQTTVQVRVPYRVVGLVVGPKGATIKRIQQQTHTYIPTPSRDKEPVFEVTGMPENVDRAREEIEMHI,-0.724 ± 0.19

row,Variant,abundance fitness
1,GQTTVQVRVPYRVVGLVVGPKGATIKRIQQQTHTYIQTPSRDKEPVFEVTGMPENVDRAREEIEMHI,-0.094 ± 0.088
2,GQTTVQVRVPYRVVGLVVGPKGATIKRIQQQTHTYIRTPSRDKEPVFEVTGMPENVDRAREEIEMHI,0.138 ± 0.055
3,GQTTVQVRVPYRVVGLVVGPKGATIKRIQQQTHTYISTPSRDKEPVFEVTGMPENVDRAREEIEMHI,-0.027 ± 0.073
4,GQTTVQVRVPYRVVGLVVGPKGATIKRIQQQTHTYITTPSRDKEPVFEVTGMPENVDRAREEIEMHI,0.136 ± 0.098
5,GQTTVQVRVPYRVVGLVVGPKGATIKRIQQQTHTYIWTPSRDKEPVFEVTGMPENVDRAREEIEMHI,-0.811 ± 0.18
6,GQTTVQVRVPYRVVGLVVGPKGATIKRIQQQTHTYIYTPSRDKEPVFEVTGMPENVDRAREEIEMHI,-0.629 ± 0.16
7,GQTTVQVRVPYRVVGLVVGPKGATIKRIQQQTHTYIVAPSRDKEPVFEVTGMPENVDRAREEIEMHI,-0.015 ± 0.064
8,GQTTVQVRVPYRVVGLVVGPKGATIKRIQQQTHTYIVCPSRDKEPVFEVTGMPENVDRAREEIEMHI,0.005 ± 0.076
9,GQTTVQVRVPYRVVGLVVGPKGATIKRIQQQTHTYIVDPSRDKEPVFEVTGMPENVDRAREEIEMHI,-0.275 ± 0.32
10,GQTTVQVRVPYRVVGLVVGPKGATIKRIQQQTHTYIVFPSRDKEPVFEVTGMPENVDRAREEIEMHI,-0.516 ± 0.28
11,GQTTVQVRVPYRVVGLVVGPKGATIKRIQQQTHTYIVGPSRDKEPVFEVTGMPENVDRAREEIEMHI,0.005 ± 0.047
12,GQTTVQVRVPYRVVGLVVGPKGATIKRIQQQTHTYIVHPSRDKEPVFEVTGMPENVDRAREEIEMHI,-0.587 ± 0.46
13,GQTTVQVRVPYRVVGLVVGPKGATIKRIQQQTHTYIVIPSRDKEPVFEVTGMPENVDRAREEIEMHI,-0.177 ± 0.22
14,GQTTVQVRVPYRVVGLVVGPKGATIKRIQQQTHTYIVKPSRDKEPVFEVTGMPENVDRAREEIEMHI,-0.333 ± 0.2
15,GQTTVQVRVPYRVVGLVVGPKGATIKRIQQQTHTYIVLPSRDKEPVFEVTGMPENVDRAREEIEMHI,-0.268 ± 0.09
16,GQTTVQVRVPYRVVGLVVGPKGATIKRIQQQTHTYIVMPSRDKEPVFEVTGMPENVDRAREEIEMHI,-0.271 ± 0.15
17,GQTTVQVRVPYRVVGLVVGPKGATIKRIQQQTHTYIVNPSRDKEPVFEVTGMPENVDRAREEIEMHI,-0.347 ± 0.23
18,GQTTVQVRVPYRVVGLVVGPKGATIKRIQQQTHTYIVPPSRDKEPVFEVTGMPENVDRAREEIEMHI,-0.046 ± 0.11
19,GQTTVQVRVPYRVVGLVVGPKGATIKRIQQQTHTYIVRPSRDKEPVFEVTGMPENVDRAREEIEMHI,-0.403 ± 0.07
20,GQTTVQVRVPYRVVGLVVGPKGATIKRIQQQTHTYIVSPSRDKEPVFEVTGMPENVDRAREEIEMHI,-0.01 ± 0.072
